B1: SLC16A7, O60669 (peptide)
chain: SVTSERETNI
B2: MTNR1A, P48039 (peptide)
chain: NNNVVKVDSV
B3: PTTG2, Q9NZH5 (peptide)
chain: LPAVCYDIDI
B4: MKNK1, Q9BUB5 (peptide)
chain: GEDRSPPTAL

biological target: T1, DLG3_1, Q92796; test: holdup assay; design: key: below the threshold = too weak to quantify, mostly under pKd 3.1 to 4; settings: plain residues with an end cap or a label only (N-terminal biotin on a linker: ado-ado)
T1 sequence (Q92796 125-227, limits assumed, looked up): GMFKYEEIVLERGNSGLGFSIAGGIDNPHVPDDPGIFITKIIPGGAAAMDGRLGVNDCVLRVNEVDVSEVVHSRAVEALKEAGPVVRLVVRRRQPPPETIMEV

Binder	pKd
B1	below the threshold
B2	below the threshold
B3	below the threshold
B4	below the threshold

biological target: DLG4_2, P78352; test: holdup assay; design: key: below the threshold = too weak to quantify, mostly under pKd 3.1 to 4; settings: plain residues with an end cap or a label only (N-terminal biotin on a linker: ado-ado)
Sequence (P78352 155-259): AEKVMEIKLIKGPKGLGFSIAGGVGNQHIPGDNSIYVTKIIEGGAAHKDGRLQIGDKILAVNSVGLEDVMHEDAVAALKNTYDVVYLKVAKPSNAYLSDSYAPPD

Binder	pKd
B1	4.11
B2	below the threshold
B3	below the threshold
B4	below the threshold

biological target: DLG4_3, P78352; test: holdup assay; design: key: below the threshold = too weak to quantify, mostly under pKd 3.1 to 4; settings: plain residues with an end cap or a label only (N-terminal biotin on a linker: ado-ado)
Sequence (P78352 306-403): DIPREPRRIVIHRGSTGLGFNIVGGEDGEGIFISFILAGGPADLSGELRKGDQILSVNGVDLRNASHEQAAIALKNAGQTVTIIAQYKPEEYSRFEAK

Binder	pKd
B1	below the threshold
B2	below the threshold
B3	below the threshold
B4	3.5

biological target: FRMPD2_1, Q68DX3; test: holdup assay; design: key: below the threshold = too weak to quantify, mostly under pKd 3.1 to 4; settings: plain residues with an end cap or a label only (N-terminal biotin on a linker: ado-ado)
Sequence (Q68DX3 770-861): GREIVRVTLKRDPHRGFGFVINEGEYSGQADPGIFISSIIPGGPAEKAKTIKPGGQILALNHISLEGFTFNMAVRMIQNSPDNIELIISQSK

Binder	pKd
B1	below the threshold
B2	below the threshold
B3	below the threshold
B4	below the threshold

biological target: FRMPD2_2, Q68DX3; test: holdup assay; design: key: below the threshold = too weak to quantify, mostly under pKd 3.1 to 4; settings: plain residues with an end cap or a label only (N-terminal biotin on a linker: ado-ado)
Sequence (Q68DX3 944-1038): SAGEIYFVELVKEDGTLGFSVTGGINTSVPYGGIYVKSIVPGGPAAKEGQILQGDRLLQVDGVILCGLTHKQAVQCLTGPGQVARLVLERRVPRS

Binder	pKd
B1	below the threshold
B2	below the threshold
B3	below the threshold
B4	below the threshold

biological target: GOPC, Q9HD26; test: holdup assay; design: key: below the threshold = too weak to quantify, mostly under pKd 3.1 to 4; settings: plain residues with an end cap or a label only (N-terminal biotin on a linker: ado-ado)

Binder	pKd
B1	below the threshold
B2	below the threshold
B3	below the threshold
B4	3.5

biological target: GRIP2_4, Q9C0E4; test: holdup assay; design: key: below the threshold = too weak to quantify, mostly under pKd 3.1 to 4; settings: plain residues with an end cap or a label only (N-terminal biotin on a linker: ado-ado)
Sequence (Q9C0E4 446-548): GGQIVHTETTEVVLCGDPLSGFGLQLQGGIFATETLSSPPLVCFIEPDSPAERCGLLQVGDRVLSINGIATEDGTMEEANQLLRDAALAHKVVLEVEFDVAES

Binder	pKd
B1	below the threshold
B2	below the threshold
B3	below the threshold
B4	below the threshold

biological target: HTRA2, O43464; test: holdup assay; design: key: below the threshold = too weak to quantify, mostly under pKd 3.1 to 4; settings: plain residues with an end cap or a label only (N-terminal biotin on a linker: ado-ado)
Sequence (O43464 355-458): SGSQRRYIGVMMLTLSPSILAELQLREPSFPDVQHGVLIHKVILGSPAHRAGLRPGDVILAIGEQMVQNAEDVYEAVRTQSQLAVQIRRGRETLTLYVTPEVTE

Binder	pKd
B1	below the threshold
B2	below the threshold
B3	below the threshold
B4	below the threshold

biological target: T2, HTRA3, P83110; test: holdup assay; design: key: below the threshold = too weak to quantify, mostly under pKd 3.1 to 4; settings: plain residues with an end cap or a label only (N-terminal biotin on a linker: ado-ado)
T2 sequence (P83110 354-453, limits assumed, looked up): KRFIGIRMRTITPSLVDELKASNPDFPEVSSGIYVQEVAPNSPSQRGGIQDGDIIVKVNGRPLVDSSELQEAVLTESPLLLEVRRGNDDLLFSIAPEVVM

Binder	pKd
B1	below the threshold
B2	below the threshold
B3	3.6
B4	below the threshold

biological target: IL16_4, Q14005; test: holdup assay; design: key: below the threshold = too weak to quantify, mostly under pKd 3.1 to 4; settings: plain residues with an end cap or a label only (N-terminal biotin on a linker: ado-ado)
Sequence (Q14005 1229-1329): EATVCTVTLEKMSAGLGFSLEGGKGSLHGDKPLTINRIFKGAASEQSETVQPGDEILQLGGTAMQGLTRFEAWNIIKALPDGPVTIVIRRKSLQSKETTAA

Binder	pKd
B1	3.49
B2	3.5
B3	below the threshold
B4	below the threshold

biological target: Inadl_1, Q8NI35; test: holdup assay; design: key: below the threshold = too weak to quantify, mostly under pKd 3.1 to 4; settings: plain residues with an end cap or a label only (N-terminal biotin on a linker: ado-ado)
Sequence (Q8NI35 113-229): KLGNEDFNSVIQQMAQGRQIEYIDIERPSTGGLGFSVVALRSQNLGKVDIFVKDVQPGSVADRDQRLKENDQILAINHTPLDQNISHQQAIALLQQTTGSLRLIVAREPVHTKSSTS

Binder	pKd
B1	below the threshold
B2	below the threshold
B3	below the threshold
B4	below the threshold

biological target: Inadl_6, Q8NI35; test: holdup assay; design: key: below the threshold = too weak to quantify, mostly under pKd 3.1 to 4; settings: plain residues with an end cap or a label only (N-terminal biotin on a linker: ado-ado)
Sequence (Q8NI35 1058-1167): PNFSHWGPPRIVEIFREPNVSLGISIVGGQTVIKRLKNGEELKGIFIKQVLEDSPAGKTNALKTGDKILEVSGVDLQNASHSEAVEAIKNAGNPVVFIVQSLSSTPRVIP

Binder	pKd
B1	below the threshold
B2	below the threshold
B3	below the threshold
B4	below the threshold

biological target: Inadl_9, Q8NI35; test: holdup assay; design: key: below the threshold = too weak to quantify, mostly under pKd 3.1 to 4; settings: plain residues with an end cap or a label only (N-terminal biotin on a linker: ado-ado)
Sequence (Q8NI35 1530-1615): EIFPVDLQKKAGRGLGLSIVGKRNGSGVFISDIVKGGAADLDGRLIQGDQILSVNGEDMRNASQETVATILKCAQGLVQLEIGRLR

Binder	pKd
B1	below the threshold
B2	below the threshold
B3	below the threshold
B4	below the threshold

biological target: LAP2, Q96RT1; test: holdup assay; design: key: below the threshold = too weak to quantify, mostly under pKd 3.1 to 4; settings: plain residues with an end cap or a label only (N-terminal biotin on a linker: ado-ado)
Sequence (Q96RT1 other isoform, or with tags, fused parts or gaps): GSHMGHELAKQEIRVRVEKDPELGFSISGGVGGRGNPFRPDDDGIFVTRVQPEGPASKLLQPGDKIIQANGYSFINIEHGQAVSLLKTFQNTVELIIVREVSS

Binder	pKd
B1	below the threshold
B2	below the threshold
B3	below the threshold
B4	below the threshold

biological target: T3, LIN7B, Q9HAP6; test: holdup assay; design: key: below the threshold = too weak to quantify, mostly under pKd 3.1 to 4; settings: plain residues with an end cap or a label only (N-terminal biotin on a linker: ado-ado)
T3 sequence (Q9HAP6 88-185, limits assumed, looked up): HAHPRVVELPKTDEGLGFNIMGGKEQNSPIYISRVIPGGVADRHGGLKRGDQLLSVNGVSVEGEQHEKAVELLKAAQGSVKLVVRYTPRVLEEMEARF

Binder	pKd
B1	3.62
B2	3.7
B3	3.53
B4	below the threshold

biological target: LNX1_1, Q8TBB1; test: holdup assay; design: key: below the threshold = too weak to quantify, mostly under pKd 3.1 to 4; settings: plain residues with an end cap or a label only (N-terminal biotin on a linker: ado-ado)
Sequence (Q8TBB1 261-371): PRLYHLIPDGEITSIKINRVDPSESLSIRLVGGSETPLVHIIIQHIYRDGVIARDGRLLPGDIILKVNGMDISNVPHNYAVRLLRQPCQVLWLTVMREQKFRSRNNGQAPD

Binder	pKd
B1	below the threshold
B2	below the threshold
B3	below the threshold
B4	below the threshold

biological target: MAGI2_3, Q86UL8; test: holdup assay; design: key: below the threshold = too weak to quantify, mostly under pKd 3.1 to 4; settings: plain residues with an end cap or a label only (N-terminal biotin on a linker: ado-ado)
Sequence (Q86UL8 600-682): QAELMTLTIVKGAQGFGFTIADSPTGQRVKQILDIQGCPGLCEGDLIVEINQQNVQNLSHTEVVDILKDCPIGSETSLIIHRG

Binder	pKd
B1	below the threshold
B2	below the threshold
B3	below the threshold
B4	below the threshold

biological target: NHERF4_2, Q86UT5; test: holdup assay; design: key: below the threshold = too weak to quantify, mostly under pKd 3.1 to 4; settings: plain residues with an end cap or a label only (N-terminal biotin on a linker: ado-ado)
Sequence (Q86UT5 220-308): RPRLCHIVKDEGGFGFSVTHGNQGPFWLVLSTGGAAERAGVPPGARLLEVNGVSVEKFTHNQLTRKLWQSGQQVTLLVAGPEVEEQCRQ

Binder	pKd
B1	below the threshold
B2	below the threshold
B3	below the threshold
B4	below the threshold

biological target: T4, PCLO, Q9Y6V0; test: holdup assay; design: key: below the threshold = too weak to quantify, mostly under pKd 3.1 to 4; settings: plain residues with an end cap or a label only (N-terminal biotin on a linker: ado-ado)
T4 sequence (Q9Y6V0 4491-4600, limits assumed, looked up): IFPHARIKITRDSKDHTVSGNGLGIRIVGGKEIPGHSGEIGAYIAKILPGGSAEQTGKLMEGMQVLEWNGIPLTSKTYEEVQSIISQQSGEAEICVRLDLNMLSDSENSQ

Binder	pKd
B1	below the threshold
B2	below the threshold
B3	below the threshold
B4	below the threshold

biological target: PDLIM1, O00151; test: holdup assay; design: key: below the threshold = too weak to quantify, mostly under pKd 3.1 to 4; settings: plain residues with an end cap or a label only (N-terminal biotin on a linker: ado-ado)
Sequence (O00151 1-87): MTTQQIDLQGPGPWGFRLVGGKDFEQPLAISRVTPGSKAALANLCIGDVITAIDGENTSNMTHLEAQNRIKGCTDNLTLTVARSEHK

Binder	pKd
B1	below the threshold
B2	below the threshold
B3	below the threshold
B4	below the threshold

biological target: T5, PDZD2_2, O15018; test: holdup assay; design: key: below the threshold = too weak to quantify, mostly under pKd 3.1 to 4; settings: plain residues with an end cap or a label only (N-terminal biotin on a linker: ado-ado)
T5 sequence (O15018 329-429, limits assumed, looked up): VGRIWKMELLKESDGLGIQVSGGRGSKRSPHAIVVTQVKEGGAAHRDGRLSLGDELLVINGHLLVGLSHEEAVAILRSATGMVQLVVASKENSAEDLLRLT

Binder	pKd
B1	4.65
B2	3.98
B3	4.17
B4	below the threshold

biological target: T6, RAPGEF6, Q8TEU7; test: holdup assay; design: key: below the threshold = too weak to quantify, mostly under pKd 3.1 to 4; settings: plain residues with an end cap or a label only (N-terminal biotin on a linker: ado-ado)
T6 sequence (Q8TEU7 525-625, limits assumed, looked up): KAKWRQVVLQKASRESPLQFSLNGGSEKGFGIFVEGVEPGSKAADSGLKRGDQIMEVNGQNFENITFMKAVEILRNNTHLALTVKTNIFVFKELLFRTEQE

Binder	pKd
B1	below the threshold
B2	below the threshold
B3	below the threshold
B4	below the threshold

biological target: SCRIB_3, Q14160; test: holdup assay; design: key: below the threshold = too weak to quantify, mostly under pKd 3.1 to 4; settings: plain residues with an end cap or a label only (N-terminal biotin on a linker: ado-ado)
Sequence (Q14160 999-1103): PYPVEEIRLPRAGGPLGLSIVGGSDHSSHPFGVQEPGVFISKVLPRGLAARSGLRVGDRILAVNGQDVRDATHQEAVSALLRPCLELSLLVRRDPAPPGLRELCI

Binder	pKd
B1	4.93
B2	below the threshold
B3	4.29
B4	4.57

biological target: T7, SNTG1, Q9NSN8; test: holdup assay; design: key: below the threshold = too weak to quantify, mostly under pKd 3.1 to 4; settings: plain residues with an end cap or a label only (N-terminal biotin on a linker: ado-ado)
T7 sequence (Q9NSN8 52-150, limits assumed, looked up): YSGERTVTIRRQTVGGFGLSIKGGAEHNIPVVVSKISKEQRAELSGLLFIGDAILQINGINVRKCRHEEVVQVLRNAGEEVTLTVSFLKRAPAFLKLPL

Binder	pKd
B1	4.61
B2	below the threshold
B3	3.64
B4	below the threshold

biological target: T8, TIAM2, Q8IVF5; test: holdup assay; design: key: below the threshold = too weak to quantify, mostly under pKd 3.1 to 4; settings: plain residues with an end cap or a label only (N-terminal biotin on a linker: ado-ado)
T8 sequence (Q8IVF5 885-986, limits assumed, looked up): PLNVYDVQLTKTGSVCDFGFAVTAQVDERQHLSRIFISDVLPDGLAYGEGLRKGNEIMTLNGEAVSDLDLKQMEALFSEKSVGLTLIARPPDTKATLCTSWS

Binder	pKd
B1	3.83
B2	3.77
B3	3.87
B4	below the threshold

biological target: TJP1_3, Q07157; test: holdup assay; design: key: below the threshold = too weak to quantify, mostly under pKd 3.1 to 4; settings: plain residues with an end cap or a label only (N-terminal biotin on a linker: ado-ado)
Sequence (Q07157 416-512): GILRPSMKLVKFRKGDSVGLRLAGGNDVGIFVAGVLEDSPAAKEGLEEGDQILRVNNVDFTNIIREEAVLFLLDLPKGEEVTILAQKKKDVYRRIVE

Binder	pKd
B1	below the threshold
B2	below the threshold
B3	below the threshold
B4	below the threshold

biological target: TJP2_1, Q9UDY2; test: holdup assay; design: key: below the threshold = too weak to quantify, mostly under pKd 3.1 to 4; settings: plain residues with an end cap or a label only (N-terminal biotin on a linker: ado-ado)
Sequence (Q9UDY2 24-128): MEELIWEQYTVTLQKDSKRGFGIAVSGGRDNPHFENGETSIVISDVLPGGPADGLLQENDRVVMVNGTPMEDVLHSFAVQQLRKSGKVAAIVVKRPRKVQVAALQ

Binder	pKd
B1	below the threshold
B2	below the threshold
B3	below the threshold
B4	below the threshold

biological target: T9, TX1BP3, O14907; test: holdup assay; design: key: below the threshold = too weak to quantify, mostly under pKd 3.1 to 4; settings: plain residues with an end cap or a label only (N-terminal biotin on a linker: ado-ado)
T9 sequence (O14907 10-122, limits assumed, looked up): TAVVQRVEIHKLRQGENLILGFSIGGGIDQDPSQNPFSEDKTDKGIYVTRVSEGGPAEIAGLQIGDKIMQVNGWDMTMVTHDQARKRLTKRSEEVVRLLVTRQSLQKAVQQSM

Binder	pKd
B1	below the threshold
B2	below the threshold
B3	4.09
B4	below the threshold

Reference: paper PMC9482650, “Quantitative fragmentomics allow affinity mapping of interactomes” (Nature Communications, 2022)
